Measured values reported in patent US12064469B2, “Stable peptide compositions” (TearSolutions, Inc., priority 2017, dated 2024).
“Also recorded” adds a separate entry of the source.

Assay: Comparative Lacripep stability in PBS vs citrate buffer at 60° C. by MALDI TOF mass spectrometry
Format: physicochemical
Details: 2 weeks
Procedure: FIGS. 1A and 1B illustrate the stability of Lacripep™ (SEQ ID NO: 1) (0.001%) in phosphate buffered saline (PBS), pH 4.5 and 7.0. The Lacripep™ solutions were analyzed by MALDI TOF mass spectrometry at time 0 (FIG. 1A) and after two weeks (FIG. 1B) at 60° C.
The Lacripep™ solutions were analyzed by MALDI TOF mass spectrometry at time 0 (FIG. 2A) and after two weeks (FIG. 2B) at 60° C.
Lacripep™ (SEQ ID NO. 1) stability was assessed in PBS at pH 4.5 and 7.0 (FIG. 1) and citrate buffer at pH 6.0 and 6.5 (FIG. 2). The initial concentration of Lacripep™ was 0.001%, and each trial was run at 60° C. The stability was assessed using MALDI TOF mass spectrometry at the initiation of the experiment (week 0, FIGS. 1A and 2A) and after two weeks (week 2, FIGS. 1B and 2B).

In the case of “Ac-Lys-Gln-Phe-Ile-Glu-Asn-Gly-Ser-Glu-Phe-Ala-Gln-Lys-Leu-Leu-Lys-Lys-Phe-Ser-NH2 (Ac-KQFIENGSEFAQKLLKKFS-NH2; listed as Homo sapiens) [Lacripep™]”, the “stability (Lacripep peak, MALDI TOF)” value (PBS pH 4.5, 0.001% Lacripep) is reported as “significant degradation; also recorded: a degradation product becomes apparent; also recorded: An additional degradation product is seen”, the “stability (Lacripep peak, MALDI TOF)” value (PBS pH 7.0, 0.001% Lacripep) is reported as “significant degradation; also recorded: a degradation product becomes apparent” and the “stability (Lacripep peak, MALDI TOF)” value (citrate buffer pH 6.0, 0.001% Lacripep) is reported as “no change in the intensity of the Lacripep™ peak”. For the same substance, the “stability (Lacripep peak, MALDI TOF)” value (citrate buffer pH 6.5, 0.001% Lacripep) was “no change in the intensity of the Lacripep™ peak”.
